This assay has as its target toxin B (TcdB) from Clostridioides difficile VPI 10,463 (Clostridioides difficile VPI 10,463) (UniProt P18177).

Where “and” joins values, the source holds several entries; their conditions need not be identical. Equal entries are not always repeated.

Sequence of toxin B (TcdB) from Clostridioides difficile VPI 10,463 (Clostridioides difficile VPI 10,463) (P18177 whole entry): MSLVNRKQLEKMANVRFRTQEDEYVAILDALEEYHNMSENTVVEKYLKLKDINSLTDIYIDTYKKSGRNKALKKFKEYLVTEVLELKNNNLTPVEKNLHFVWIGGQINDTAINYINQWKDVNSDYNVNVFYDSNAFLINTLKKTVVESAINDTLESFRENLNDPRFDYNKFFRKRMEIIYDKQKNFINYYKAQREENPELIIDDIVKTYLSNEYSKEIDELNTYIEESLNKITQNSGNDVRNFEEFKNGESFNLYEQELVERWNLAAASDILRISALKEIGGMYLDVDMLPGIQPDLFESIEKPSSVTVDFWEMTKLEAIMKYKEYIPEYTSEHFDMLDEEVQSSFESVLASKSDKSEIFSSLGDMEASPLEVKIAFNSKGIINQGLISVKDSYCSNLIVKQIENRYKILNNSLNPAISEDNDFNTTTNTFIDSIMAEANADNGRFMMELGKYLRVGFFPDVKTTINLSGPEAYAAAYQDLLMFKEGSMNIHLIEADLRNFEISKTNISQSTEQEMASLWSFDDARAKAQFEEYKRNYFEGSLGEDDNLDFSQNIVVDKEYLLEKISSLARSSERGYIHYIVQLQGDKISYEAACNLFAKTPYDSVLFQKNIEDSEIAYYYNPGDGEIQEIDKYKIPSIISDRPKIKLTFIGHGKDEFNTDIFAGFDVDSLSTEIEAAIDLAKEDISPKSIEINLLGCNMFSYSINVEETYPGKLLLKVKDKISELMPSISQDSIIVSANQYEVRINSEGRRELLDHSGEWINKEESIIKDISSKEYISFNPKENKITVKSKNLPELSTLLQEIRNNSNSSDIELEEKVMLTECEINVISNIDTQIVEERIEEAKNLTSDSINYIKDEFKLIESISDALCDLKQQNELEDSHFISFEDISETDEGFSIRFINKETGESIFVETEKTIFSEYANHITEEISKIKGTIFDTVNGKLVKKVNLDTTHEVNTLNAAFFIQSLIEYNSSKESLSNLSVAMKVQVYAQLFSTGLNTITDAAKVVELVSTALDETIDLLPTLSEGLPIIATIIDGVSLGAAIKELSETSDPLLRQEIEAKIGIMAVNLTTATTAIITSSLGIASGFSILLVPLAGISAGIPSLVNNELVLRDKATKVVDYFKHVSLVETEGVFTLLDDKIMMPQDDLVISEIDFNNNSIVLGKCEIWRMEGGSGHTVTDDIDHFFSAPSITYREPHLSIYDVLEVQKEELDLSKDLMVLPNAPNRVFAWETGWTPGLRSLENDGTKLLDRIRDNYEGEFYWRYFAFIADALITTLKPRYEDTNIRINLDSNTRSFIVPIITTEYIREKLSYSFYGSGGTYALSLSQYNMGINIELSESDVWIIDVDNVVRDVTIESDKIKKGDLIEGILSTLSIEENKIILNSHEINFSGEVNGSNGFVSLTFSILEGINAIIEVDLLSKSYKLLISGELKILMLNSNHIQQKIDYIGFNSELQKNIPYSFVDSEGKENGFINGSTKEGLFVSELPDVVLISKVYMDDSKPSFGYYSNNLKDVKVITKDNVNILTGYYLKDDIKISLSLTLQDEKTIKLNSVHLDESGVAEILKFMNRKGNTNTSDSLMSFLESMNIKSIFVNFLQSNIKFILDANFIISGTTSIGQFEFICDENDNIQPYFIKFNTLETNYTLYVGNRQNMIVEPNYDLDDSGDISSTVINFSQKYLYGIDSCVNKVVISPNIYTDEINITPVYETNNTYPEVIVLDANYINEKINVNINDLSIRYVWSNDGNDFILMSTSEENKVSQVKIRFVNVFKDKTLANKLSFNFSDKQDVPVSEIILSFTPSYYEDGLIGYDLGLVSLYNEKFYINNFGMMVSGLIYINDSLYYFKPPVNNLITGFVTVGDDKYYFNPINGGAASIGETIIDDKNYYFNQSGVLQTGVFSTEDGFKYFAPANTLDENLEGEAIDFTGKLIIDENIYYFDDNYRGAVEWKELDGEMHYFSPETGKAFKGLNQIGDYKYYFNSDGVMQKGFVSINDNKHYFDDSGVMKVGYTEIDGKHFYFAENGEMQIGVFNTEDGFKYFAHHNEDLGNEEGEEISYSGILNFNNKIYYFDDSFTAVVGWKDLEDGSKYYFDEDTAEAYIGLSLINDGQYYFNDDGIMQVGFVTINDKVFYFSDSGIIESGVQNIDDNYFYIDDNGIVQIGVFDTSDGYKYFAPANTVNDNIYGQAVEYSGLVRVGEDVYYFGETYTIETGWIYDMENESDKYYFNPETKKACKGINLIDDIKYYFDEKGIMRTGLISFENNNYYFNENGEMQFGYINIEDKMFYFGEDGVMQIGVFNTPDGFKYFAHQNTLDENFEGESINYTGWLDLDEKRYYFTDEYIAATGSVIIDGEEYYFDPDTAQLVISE

KFINIFIHGNKRSIKAI [Angie 5]: the other is 40.9 µM and 46.3 µM.

Source of the values: PMC12209146.
